Assay results taken from patent US20230038883A1, “SPECIFIC HOST FACTOR OF HEPATITIS B VIRUS INFECTION, AND USE THEREOF” (priority 2020, published 2023).

T1: SCARF2 EGF4-6 proteins (Homo sapiens, UniProt Q96GP6)
T1 construct: Precision (protease site) tag (internal); human Fc tag (IgG1) (C); made in house; host or cells: 293F cells (pCAGGs vector), purified with Protein A beads
T1 sequence (Q96GP6 183-270): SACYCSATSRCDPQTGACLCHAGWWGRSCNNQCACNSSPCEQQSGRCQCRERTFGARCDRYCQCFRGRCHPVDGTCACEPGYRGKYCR

B1: CREBH: cAMP-responsive element-binding protein, hepatocyte specific; SEQ ID NO:1; expressed by lentiviral transduction (protein, listed as Homo sapiens)
chain: MNTDLAAGKMASAACSMDPIDSFELLDLLFDRQDGILRHVELGEGWGHVKDQQVLPNPDSDDFLSSILGSGDSLPSSPLWSPEGSDSGISEDLPSDPQDTPPRSGPATSPAGCHPAQPGKGPCLSYHPGNSCSTTTPGPVIQVPEASVTIDLEMWSPGGRICAEKPADPVDLSPRCNLTVKDLLLSGSSGDLQQHHLGASYLLRPGAGHCQELVLTEDEKKLLAKEGITLPTQLPLTKYEERVLKKIRRKIRNKQSAQESRKKKKEYIDGLETRMSACTAQNQELQRKVLHLEKQNLSLLEQLKKLQAIVVQSTSKSAQTGTCVAVLLLSFALIILPSISPFGPNKTESPGDFAPVRVFSRTLHNDAASRVAADAVPGSEAPGPRPEADTTREESPGSPGADWGFQDTANLTNSTEELDNATLVLRNATEGLGQVALLDWVAPGPSTGSGRAGLEAAGDEL
B2: CREBH-122-318: truncated form of CREBH, residues 122-318, SEQ ID NO:3 (protein)
chain: MCLSYHPGNSCSTTTPGPVIQVPEASVTIDLEMWSPGGRICAEKPADPVDLSPRCNLTVKDLLLSGSSGDLQQHHLGASYLLRPGAGHCQELVLTEDEKKLLAKEGITLPTQLPLTKYEERVLKKIRRKIRNKQSAQESRKKKKEYIDGLETRMSACTAQNQELQRKVLHLEKQNLSLLEQLKKLQAIVVQSTSKSA
B3: CREBH-211-318: truncated form of CREBH, residues 211-318, SEQ ID NO:4, expresses only the bZIP domain (protein)
chain: QELVLTEDEKKLLAKEGITLPTQLPLTKYEERVLKKIRRKIRNKQSAQESRKKKKEYIDGLETRMSACTAQNQELQRKVLHLEKQNLSLLEQLKKLQAIVVQSTSKSA
B4: SCARF2: Scavenger receptor family F protein, SEQ ID NO:8, overexpressed in HepG2-NTCP cells (protein, listed as Homo sapiens)
chain: MEGAGPRGAGPARRRGAGGPPSPLLPSLLLLLLLWMLPDTVAPQELNPRGRNVCRAPGSQVPTCCAGWRQQGDECGIAVCEGNSTCSENEVCVRPGECRCRHGYFGANCDTKCPRQFWGPDCKELCSCHPHGQCEDVTGQCTCHARRWGARCEHACQCQHGTCHPRSGACRCEPGWWGAQCASACYCSATSRCDPQTGACLCHAGWWGRSCNNQCACNSSPCEQQSGRCQCRERTFGARCDRYCQCFRGRCHPVDGTCACEPGYRGKYCREPCPAGFYGLGCRRRCGQCKGQQPCTVAEGRCLTCEPGWNGTKCDQPCATGFYGEGCSHRCPPCRDGHACNHVTGKCTRCNAGWIGDRCETKCSNGTYGEDCAFVCADCGSGHCDFQSGRCLCSPGVHGPHCNVTCPPGLHGADCAQACSCHEDTCDPVTGACHLETNQRKGVMGAGALLVLLVCLLLSLLGCCCACRGKDPTRRPRPRRELSLGRKKAPHRLCGRFSRISMKLPRIPLRRQKLPKVVVAHHDLDNTLNCSFLEPPSGLEQPSPSWSSRASFSSFDTTDEGPVYCVPHEEAPAESRDPEVPTVPAEAPAPSPVPLTTPASAEEAIPLPASSDSERSASSVEGPGGALYARVARREARPARARGEIGGLSLSPSPERRKPPPPDPATKPKVSWIHGKHSAAAAGRAPSPPPPGSEAAPSPSKRKRTPSDKSAHTVEHGSPRTRDPTPRPPGLPEEATALAAPSPPRARARGRGPGLLEPTDAGGPPRSAPEAASMLAAELRGKTRSLGRAEVALGAQGPREKPAPPQKAKRSVPPASPARAPPATETPGPEKAATDLPAPETPRKKTPIQKPPRKKSREAAGELGRAGAPTL

What was measured:
[1] = target: polypeptide containing amino acids 69-108 of preS1 (peptide^69-108) (hepatitis B virus); assay: ForteBio Octet; sensorgrams at 200, 100, 50 and 25 µg/mL
[2] = target: polypeptide containing amino acids 69-108 of preS1 (peptide^69-108) (hepatitis B virus); assay: ForteBio Octet (BLI), biotin-labeled peptide
SCARF2 EGF4-6 proteins = target: T1, SCARF2 EGF4-6 proteins; assay: immunoprecipitation of biotin labeled preS1 polypeptides with SCARF2 EGF4-6; type: binding
Excerpt: Compared with SVPs, the virus particles were rich in L protein, and the main functional segment of L protein was the preS1 segment; it was therefore speculated that the SCARF2 EGF4-6 proteins interact with the preS1 segment of the L protein of the virus. […] The C-terminus of each of the synthesized peptides was biotin labeled.

HBV [3] = assay: HBV infection of HepG2-NTCP cells transduced with CREBH and truncated forms (ELISA, HBcAg staining); type: cell-based; details: transduced before infection; for HBV infection efficiency (ELISA): 1% PEG and 5% PEG, compared with PWPI-B empty control
Description: HepG2-NTCP cells were transduced with lentivirus embedded with CREBH and truncated forms thereof. After 24 hours, the cells were re-seeded in a culture plate, and the culture medium was changed to PMM. After 24 hours, the cells were infected with HBV in the presence of 1% PEG and 5% PEG respectively. Supernatant was collected every 2 days and assayed using an ELISA kit.
HBcAg staining was also performed in the experiments, and results were consistent with the ELISA results. […] It was thus speculated that these two truncated forms might have exerted a dominant-negative effect.

SCARF2 gene = assay: SCARF2 expression after transduction of CREBH and truncated forms (mRNA sequencing, quantitative PCR); type: cell-based; details: HepG2-NTCP cells transduced
Excerpt: Since the results of the infection occurred after the transduction of truncated forms of CREBH indicate that the transcriptional activation function of CREBH is necessary for enhancement of the infection, and the shortest functional truncated form CREBH-122-318 is localized on the nucleus, it is inferred that it is by activating a downstream gene that CREBH enhances HBV entry. In order to more accurately determine the downstream major gene, HepG2-NTCP cells transduced with CREBH, CREBH-122, CREBH-307, CREBH-122-318, CREBH-211-318, PWPI-B, and PMM were selected and used for transcriptome sequencing experiments. Meanwhile, CREBH siRNA-2 was selected and used to knock down CREBH in HepG2-NTCP cells. siNC was used as a negative control. Changes in transcriptomes were detected.
The same conclusion was also made from subsequent experiments using quantitative PCR, and the expression levels of SCARF2 were completely consistent with the enhancement effects of CREBH and its various truncated forms on HBV infection observed in the previous text.

NTCP mRNA = NTCP mRNA level under CREBH overexpression; type: cell-based; details: overexpression in HepG2-NTCP
Excerpt: NTCP is a key receptor in HBV infection and can directly bind to the PreS1 region on the virus. Many factors capable of affecting HBV infection may indirectly affect HBV infection by affecting the expression level or cellular localization of NTCP. In order to detect whether CREBH enhances HBV infection by affecting NTCP, changes in NTCP mRNA level under the condition of overexpressing CREBH was first detected.

HBV [4] = assay: cDNA library screening by HBV infection of HepG2-NTCP cells in 1% PEG; type: cell-based
Description: The cDNA library was prepared by packaging lentivirus, with HepG2-NTCP cells expressing the cDNA clones being packaged therein. After 24 hours, infection was conducted with HBV at a same tier in the presence of 1% PEG. Culture supernatant was collected every 2 days, and was tested with HBeAg and HBsAg kits.

APOA4 gene = assay: relative expression of APOA4 after transduction of truncated forms into HepG2-NTCP cells; type: cell-based
Description: In order to detect whether each truncated form still had transcriptional activation ability, experiments were conducted by using the activation of APOA4 gene reported in the literature as an indicator of the transcriptional activation ability of CREBH. After the truncated forms were transduced into HepG2-NTCP cells, relative expression of APOA4 was detected. […] CREBH-C also had relatively high activation efficiency, which however was about ⅓ of the activation efficiency of the full-length CREBH.

hepatitis D virus (HDV) = assay: HDV infection; type: cell-based
Excerpt: This phenomenon can be explained and discussed from the following aspects. First, the present invention finds that HDV infection is more dependent on the expression of NTCP on the cell membrane than HBV infection, and HDV infection can occur more easily at a low PEG concentration. Although HDV and HBV have the same viral outer membrane, HDV can be assembled in the absence of L protein. […] Second, SCARF2 contains, at its C-terminus, a signal that can lead to its localization to the nuclear membrane, and a mutant with deletion of the C-terminal Proline-rich domain cannot enhance the infection.

HBV [5] = assay: HBV infection of HepG2-NTCP cells overexpressing SCARF2; type: cell-based
Description: FIGS. 8A, 8B, and 8C are schematic diagrams showing the effects of transduction of SCARF2 on infection in Example 6. (FIG. 8A) HepG2-NTCP cells were transduced with SCARF2, CREBH-122, or PWPI, and then infected with HBV in the presence of 1% PEG. (FIG. 8B) HepG2-NTCP cells were transduced with SCARF2, CREBH-122, or PWPI, and then infected with HBV in the presence of 5% PEG. (FIG. 8C) Nuclear and cytoplasmic fractions of the cells at 0 hour, 6 hours, 24 hours, and 72 hours after infection were isolated, and content of HBV DNA in each of the fractions was detected by southern-blot.
In the present invention, SCARF2 was first overexpressed in HepG2-NTCP cell line to test the effects of SCARF2 on HBV infection. […] Meanwhile, from HepG2-NTCP cell line stably expressing SCARF2, HBV DNA was isolated for analysis from the cytoplasm and the nucleus at different time points of HBV infection.

[6] = HepG2-NTCP stably expressing SCARF2, southern-blot

Sequence of polypeptide containing amino acids 69-108 of preS1 (peptide^69-108) (hepatitis B virus) (P03138 69-108): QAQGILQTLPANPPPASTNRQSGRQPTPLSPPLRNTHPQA

Molecule | HBV infection efficiency (ELISA) (HBV [3]) | expression of SCARF2 (SCARF2 gene) | NTCP mRNA level (NTCP mRNA) | activation of APOA4 gene (relative expression) (APOA4 gene) | HDV infection (hepatitis D virus (HDV)) | further results
SCARF2 EGF4-6 protein (from UniProt Q96GP6 183-270) (Fc fusion) |  |  |  |  |  | koff [1]: 0.000289 s⁻¹; kon [1]: 4970 M⁻¹ s⁻¹; Kd [2]: 58 nM
CC[C@H](C)[C@H](NC(=O)CNC(=O)[C@H](CCC(N)=O)NC(=O)[C@H](C)NC(=O)[C@@H](N)CCC(N)=O)C(=O)N[C@@H](CC(C)C)C(=O)N[C@@H](CCC(N)=O)C(=O)N[C@H](C(=O)N[C@@H](CC(C)C)C(=O)N1CCC[C@H]1C(=O)N[C@@H](C)C(=O)N[C@@H](CC(N)=O)C(=O)N1CCC[C@H]1C(=O)N1CCC[C@H]1C(=O)N1CCC[C@H]1C(=O)N[C@@H](C)C(=O)N[C@@H](CO)C(=O)N[C@H](C(=O)N[C@@H](CC(N)=O)C(=O)N[C@@H](CCCNC(=N)N)C(=O)N[C@@H](CCC(N)=O)C(=O)N[C@@H](CO)C(=O)NCC(=O)N[C@@H](CCCNC(=N)N)C(=O)N[C@@H](CCC(N)=O)C(=O)N1CCC[C@H]1C(=O)N[C@H](C(=O)N1CCC[C@H]1C(=O)N[C@@H](CC(C)C)C(=O)N[C@@H](CO)C(=O)N1CCC[C@H]1C(=O)N1CCC[C@H]1C(=O)N[C@@H](CC(C)C)C(=O)N[C@@H](CCCNC(=N)N)C(=O)N[C@@H](CC(N)=O)C(=O)N[C@H](C(=O)N[C@@H](Cc1c[nH]cn1)C(=O)N1CCC[C@H]1C(=O)N[C@@H](CCC(N)=O)C(=O)N[C@@H](C)C(=O)O)[C@@H](C)O)[C@@H](C)O)[C@@H](C)O)[C@@H](C)O [peptide^69-108] |  |  |  |  |  | binding to SCARF2 EGF4-6 proteins (SCARF2 EGF4-6 proteins): specifically bound
B1 | increase the infection efficiency | can up-regulate the expression of SCARF2 gene, but not to a very significant level | slightly down-regulated | strongest activation effect | neither of CREBH and SCARF2 can enhance | number of HBcAg-positive cells (HBV [4]; HBcAg staining): remarkably increases; HBV infection (HBeAg, HBsAg in supernatant) (HBV [4]; HepG2-NTCP cells expressing cDNA clone, 1% PEG): remarkably enhances HBV infection
B2 | increase the infection efficiency | significantly up-regulates SCARF2 | slightly down-regulated | capable of activating APOA4 gene to some extent |  | 
B3 |  | does not lead to a change in SCARF2 expression |  |  |  | HBV infection (HBcAg staining, consistent with ELISA) (HBV [3]): to some certain extent inhibited the infection
B4 |  |  |  |  | neither of CREBH and SCARF2 can enhance | HBV infection (HBV [5]; 1% PEG or 5% PEG): can enhance HBV infection; HBV DNA in fractions of the cytoplasm (HBV [5]; [6]): slightly increased; rcDNA and cccDNA in fractions of the nucleus (HBV [5]; [6]): significantly increased
